Experimental data taken from US20250025478.

3×-FLAG-RNF213, sequence (chain, as listed by the source): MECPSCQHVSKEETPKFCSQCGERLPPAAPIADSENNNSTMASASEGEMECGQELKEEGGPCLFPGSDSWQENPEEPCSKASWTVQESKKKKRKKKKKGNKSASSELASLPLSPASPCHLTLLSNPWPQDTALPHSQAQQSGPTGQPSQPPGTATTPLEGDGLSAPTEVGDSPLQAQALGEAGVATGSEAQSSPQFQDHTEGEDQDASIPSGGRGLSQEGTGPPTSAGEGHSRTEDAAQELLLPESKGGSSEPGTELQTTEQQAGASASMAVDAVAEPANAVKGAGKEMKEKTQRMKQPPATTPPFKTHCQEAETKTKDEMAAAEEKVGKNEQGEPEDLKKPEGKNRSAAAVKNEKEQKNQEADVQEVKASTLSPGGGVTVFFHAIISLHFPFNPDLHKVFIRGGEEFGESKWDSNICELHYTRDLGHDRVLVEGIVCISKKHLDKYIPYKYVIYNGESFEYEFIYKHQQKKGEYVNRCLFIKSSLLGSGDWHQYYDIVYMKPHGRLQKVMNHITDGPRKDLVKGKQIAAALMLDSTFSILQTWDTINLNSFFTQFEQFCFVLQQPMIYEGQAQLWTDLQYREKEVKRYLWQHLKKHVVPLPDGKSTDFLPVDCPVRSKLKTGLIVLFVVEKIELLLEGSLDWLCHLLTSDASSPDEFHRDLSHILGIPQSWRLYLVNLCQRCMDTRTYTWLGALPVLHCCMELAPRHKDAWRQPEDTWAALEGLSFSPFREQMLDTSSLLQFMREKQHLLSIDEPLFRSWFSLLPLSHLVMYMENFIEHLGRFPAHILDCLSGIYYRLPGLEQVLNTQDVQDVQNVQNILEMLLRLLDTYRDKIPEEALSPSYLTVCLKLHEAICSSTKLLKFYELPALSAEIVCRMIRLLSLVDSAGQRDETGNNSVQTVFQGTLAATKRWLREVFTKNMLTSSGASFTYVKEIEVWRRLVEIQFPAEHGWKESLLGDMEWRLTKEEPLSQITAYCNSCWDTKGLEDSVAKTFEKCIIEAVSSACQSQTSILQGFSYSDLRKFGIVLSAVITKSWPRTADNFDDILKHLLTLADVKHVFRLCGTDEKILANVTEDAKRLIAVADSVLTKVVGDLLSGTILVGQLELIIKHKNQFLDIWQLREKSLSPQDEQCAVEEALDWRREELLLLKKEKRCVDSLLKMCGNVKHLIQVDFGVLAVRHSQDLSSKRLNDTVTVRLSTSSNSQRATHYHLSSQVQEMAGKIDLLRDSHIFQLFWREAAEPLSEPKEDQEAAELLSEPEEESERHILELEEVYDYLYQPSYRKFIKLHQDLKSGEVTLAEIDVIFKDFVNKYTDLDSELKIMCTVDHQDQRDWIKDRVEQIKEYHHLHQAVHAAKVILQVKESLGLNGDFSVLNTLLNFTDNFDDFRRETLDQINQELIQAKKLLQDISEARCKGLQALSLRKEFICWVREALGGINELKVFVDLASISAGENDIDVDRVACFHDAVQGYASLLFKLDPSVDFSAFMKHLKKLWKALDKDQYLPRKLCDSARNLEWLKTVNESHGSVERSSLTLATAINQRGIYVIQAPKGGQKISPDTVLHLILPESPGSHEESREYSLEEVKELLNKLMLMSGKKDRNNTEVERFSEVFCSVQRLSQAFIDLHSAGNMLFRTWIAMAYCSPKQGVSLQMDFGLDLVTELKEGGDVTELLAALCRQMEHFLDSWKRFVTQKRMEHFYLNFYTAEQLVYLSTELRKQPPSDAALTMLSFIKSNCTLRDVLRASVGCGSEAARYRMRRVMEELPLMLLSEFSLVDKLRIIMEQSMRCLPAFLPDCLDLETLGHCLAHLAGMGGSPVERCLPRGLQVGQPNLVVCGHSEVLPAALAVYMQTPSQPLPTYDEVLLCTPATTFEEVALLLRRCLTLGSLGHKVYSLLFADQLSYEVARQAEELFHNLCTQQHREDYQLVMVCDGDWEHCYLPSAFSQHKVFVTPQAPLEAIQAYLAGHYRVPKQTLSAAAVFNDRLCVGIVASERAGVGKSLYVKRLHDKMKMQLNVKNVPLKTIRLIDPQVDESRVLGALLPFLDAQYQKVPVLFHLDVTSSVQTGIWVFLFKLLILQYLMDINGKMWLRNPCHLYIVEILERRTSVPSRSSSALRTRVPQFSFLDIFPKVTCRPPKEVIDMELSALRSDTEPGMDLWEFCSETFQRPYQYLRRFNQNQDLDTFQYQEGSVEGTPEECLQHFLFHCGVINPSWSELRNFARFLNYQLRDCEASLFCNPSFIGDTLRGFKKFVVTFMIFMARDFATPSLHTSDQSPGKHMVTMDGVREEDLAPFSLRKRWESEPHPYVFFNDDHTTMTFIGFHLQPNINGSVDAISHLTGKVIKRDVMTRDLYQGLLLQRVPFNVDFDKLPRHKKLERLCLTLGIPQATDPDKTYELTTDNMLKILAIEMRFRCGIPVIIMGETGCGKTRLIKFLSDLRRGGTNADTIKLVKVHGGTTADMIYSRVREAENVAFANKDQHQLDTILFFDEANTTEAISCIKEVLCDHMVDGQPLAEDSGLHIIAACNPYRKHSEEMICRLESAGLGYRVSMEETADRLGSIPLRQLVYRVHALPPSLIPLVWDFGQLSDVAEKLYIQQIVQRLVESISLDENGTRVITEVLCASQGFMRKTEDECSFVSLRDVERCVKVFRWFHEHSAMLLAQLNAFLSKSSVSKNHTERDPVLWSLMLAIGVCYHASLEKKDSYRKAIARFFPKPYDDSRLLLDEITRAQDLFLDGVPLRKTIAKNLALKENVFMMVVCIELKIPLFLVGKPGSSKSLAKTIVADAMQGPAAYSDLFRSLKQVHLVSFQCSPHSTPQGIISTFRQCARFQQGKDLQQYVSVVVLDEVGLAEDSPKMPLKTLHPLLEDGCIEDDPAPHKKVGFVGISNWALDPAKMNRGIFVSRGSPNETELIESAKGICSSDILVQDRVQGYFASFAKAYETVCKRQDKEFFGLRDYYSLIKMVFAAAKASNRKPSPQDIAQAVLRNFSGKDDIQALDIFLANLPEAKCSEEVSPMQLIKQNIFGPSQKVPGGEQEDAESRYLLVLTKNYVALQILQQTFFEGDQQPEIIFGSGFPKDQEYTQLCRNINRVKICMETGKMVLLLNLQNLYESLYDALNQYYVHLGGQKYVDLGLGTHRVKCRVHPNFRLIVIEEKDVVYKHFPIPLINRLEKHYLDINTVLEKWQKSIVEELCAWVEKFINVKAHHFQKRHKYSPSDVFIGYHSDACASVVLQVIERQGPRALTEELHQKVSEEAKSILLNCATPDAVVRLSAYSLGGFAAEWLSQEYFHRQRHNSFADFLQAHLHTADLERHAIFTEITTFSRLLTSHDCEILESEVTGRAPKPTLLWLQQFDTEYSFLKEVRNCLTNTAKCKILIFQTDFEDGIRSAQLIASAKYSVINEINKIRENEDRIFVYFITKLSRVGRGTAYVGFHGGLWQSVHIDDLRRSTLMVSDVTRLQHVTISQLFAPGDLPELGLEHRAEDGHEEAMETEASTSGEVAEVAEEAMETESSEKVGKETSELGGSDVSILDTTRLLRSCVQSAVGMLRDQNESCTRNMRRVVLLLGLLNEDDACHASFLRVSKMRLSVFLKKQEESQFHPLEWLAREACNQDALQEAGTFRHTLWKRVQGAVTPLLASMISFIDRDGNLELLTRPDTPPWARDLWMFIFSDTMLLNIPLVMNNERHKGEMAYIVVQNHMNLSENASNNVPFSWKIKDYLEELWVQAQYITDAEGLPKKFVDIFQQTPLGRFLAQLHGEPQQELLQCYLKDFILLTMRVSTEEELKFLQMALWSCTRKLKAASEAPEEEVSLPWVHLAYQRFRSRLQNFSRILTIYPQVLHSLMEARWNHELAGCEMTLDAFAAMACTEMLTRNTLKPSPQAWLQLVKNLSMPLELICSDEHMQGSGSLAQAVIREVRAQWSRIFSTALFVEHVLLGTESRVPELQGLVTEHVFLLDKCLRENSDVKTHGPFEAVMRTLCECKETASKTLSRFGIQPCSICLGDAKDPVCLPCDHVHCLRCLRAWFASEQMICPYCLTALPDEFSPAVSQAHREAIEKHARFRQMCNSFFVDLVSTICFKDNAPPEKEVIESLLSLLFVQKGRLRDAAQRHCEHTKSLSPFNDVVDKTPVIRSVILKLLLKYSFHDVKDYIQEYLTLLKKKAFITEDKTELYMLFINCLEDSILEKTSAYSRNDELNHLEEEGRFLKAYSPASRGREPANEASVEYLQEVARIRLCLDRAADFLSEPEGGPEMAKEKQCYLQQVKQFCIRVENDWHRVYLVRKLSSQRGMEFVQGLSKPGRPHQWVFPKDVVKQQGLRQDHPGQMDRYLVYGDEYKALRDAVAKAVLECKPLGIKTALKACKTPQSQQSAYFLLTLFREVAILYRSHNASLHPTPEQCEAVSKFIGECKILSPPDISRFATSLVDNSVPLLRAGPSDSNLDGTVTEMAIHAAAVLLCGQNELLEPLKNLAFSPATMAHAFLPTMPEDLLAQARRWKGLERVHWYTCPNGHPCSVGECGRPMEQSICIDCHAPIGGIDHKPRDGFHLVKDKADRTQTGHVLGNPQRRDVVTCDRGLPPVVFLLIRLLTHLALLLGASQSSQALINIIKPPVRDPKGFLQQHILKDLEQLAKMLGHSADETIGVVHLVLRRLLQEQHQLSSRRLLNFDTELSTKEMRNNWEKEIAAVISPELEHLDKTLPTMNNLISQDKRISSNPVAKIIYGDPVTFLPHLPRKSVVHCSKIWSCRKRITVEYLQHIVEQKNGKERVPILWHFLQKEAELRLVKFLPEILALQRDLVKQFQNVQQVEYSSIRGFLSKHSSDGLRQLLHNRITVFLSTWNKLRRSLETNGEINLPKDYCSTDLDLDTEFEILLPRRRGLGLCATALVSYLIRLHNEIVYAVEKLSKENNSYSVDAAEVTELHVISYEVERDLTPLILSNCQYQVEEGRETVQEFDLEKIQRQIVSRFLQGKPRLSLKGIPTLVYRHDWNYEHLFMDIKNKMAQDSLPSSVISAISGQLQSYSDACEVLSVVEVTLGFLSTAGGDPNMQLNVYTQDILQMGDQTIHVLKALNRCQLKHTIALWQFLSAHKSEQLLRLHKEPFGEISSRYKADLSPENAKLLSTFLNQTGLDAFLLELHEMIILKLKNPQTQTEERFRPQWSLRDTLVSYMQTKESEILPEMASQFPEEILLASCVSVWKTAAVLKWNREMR

B1: recombinant His-tagged ABL1 (protein)
chain: SPNYDKWEMERTDITMKHKLGGGQYGEVYEGVWKKYSLTVAVKTLKEDTMEVEEFLKEAAVMKEIKHPNLVQLLGVCTREPPFYIITEFMTYGNLLDYLRECNRQEVNAVVLLYMATQISSAMEYLEKKNFIHRDLAARNCLVGENHLVKVADFGLSRLMTGDTYTAHAGAKFPIKWTAPESLAYNKFSIKSDVWAFGVLLWEIATYGMSPYPGIDLSQVYELLEKDYRMERPEGCPEKVYELMRACWQWNPSDRPSFAEIHQAFETMFQESSISDEVEKELGK
in vitro kinase assay (tyrosine phosphorylation) (3×-FLAG-RNF213): His-ABL1 phosphorylated WT-RNF213, but not RNF213^Y1275F in a time- and ABL1-concentration-dependent manner
in vitro kinase assay (tyrosine phosphorylation) (3×-FLAG-RNF213^Y1275F): His-ABL1 phosphorylated WT-RNF213, but not RNF213^Y1275F
